According to patent US20080182978A1, “ANTI-NGF ANTIBODIES AND METHODS USING SAME” (RINAT NEUROSCIENCE CORP, priority 2002, published 2008):

Assay: Dose response of E3 on body weight in arthritic rats (Example 9)
Format: in vivo, rat
Protocol: The ability of E3 to produce reduction in pain in arthritic rats was further investigated by examining the dose response relationship between E3 administration and pain reduction. Rats were treated with adjuvant to induce arthritis as described above. Ten rats not injected with adjuvant were used as non-arthritic controls. Fourteen days after adjuvant injection, animals were qualified into the study based on the criteria stated above, randomized into eight groups of ten rats and tested for the intensity of their vocalization response. They were then dosed on day 14 with saline, or 0.003 mg/kg, 0.01 mg/kg, 0.03 mg/kg, 0.1 mg/kg, 0.3 mg/kg, 1 mg/kg or 5 mg/kg of E3 antibody as described above. Animals were tested for their vocalization response on days 16, 18, 20, and 24. Animals were redosed with saline or the same dose of E3 on day 18 after the vocalization testing. Animals were also weighed each day, starting at day 14. Thus, animals were dosed twice with a given dose of antibody or saline on days 14 and 18, and assessed for pain five times, on days 14, 16, 18, 20 and 24. Data are shown in Tables 20-22 and in FIGS. 20-22.
The effect of treating animals with various doses of anti-NGF antibody E3 on body weight was statistically analyzed by using two-way ANOVA to compare the results obtained pairwise between arthritic animals treated with vehicle with those treated with a given dose of antibody E3. […] At all higher dose of E3, the difference between treated and untreated arthritic animals was significant (p= or <0.0001). […]

[1] = E3 0.1 mg/kg on days 14+18, day 17
[2] = E3 0.1 mg/kg on days 14+18, day 18
[3] = E3 0.1 mg/kg on days 14+18, day 20
[4] = E3 0.1 mg/kg on days 14+18, day 21
[5] = E3 0.1 mg/kg on days 14+18, day 23
[6] = E3 0.1 mg/kg on days 14+18, day 24
[7] = E3 0.3 mg/kg on days 14+18, day 14
[8] = E3 0.3 mg/kg on days 14+18, day 15
[9] = E3 0.3 mg/kg on days 14+18, day 16
[10] = E3 0.3 mg/kg on days 14+18, day 17
[11] = E3 0.3 mg/kg on days 14+18, day 18
[12] = E3 0.3 mg/kg on days 14+18, day 20
[13] = E3 0.3 mg/kg on days 14+18, day 21
[14] = E3 0.3 mg/kg on days 14+18, day 23
[15] = E3 0.3 mg/kg on days 14+18, day 24
[16] = E3 1.0 mg/kg on days 14+18, day 14
[17] = E3 1.0 mg/kg on days 14+18, day 15
[18] = E3 1.0 mg/kg on days 14+18, day 16
[19] = E3 1.0 mg/kg on days 14+18, day 17
[20] = E3 1.0 mg/kg on days 14+18, day 18
[21] = E3 1.0 mg/kg on days 14+18, day 20
[22] = E3 1.0 mg/kg on days 14+18, day 21
[23] = E3 1.0 mg/kg on days 14+18, day 23
[24] = E3 1.0 mg/kg on days 14+18, day 24
[25] = E3 5.0 mg/kg on days 14+18, day 14
[26] = E3 5.0 mg/kg on days 14+18, day 15
[27] = E3 5.0 mg/kg on days 14+18, day 16
[28] = E3 5.0 mg/kg on days 14+18, day 17
[29] = E3 5.0 mg/kg on days 14+18, day 18
[30] = E3 5.0 mg/kg on days 14+18, day 20
[31] = E3 5.0 mg/kg on days 14+18, day 21
[32] = E3 5.0 mg/kg on days 14+18, day 23
[33] = E3 5.0 mg/kg on days 14+18, day 24

B1: E3: humanized, affinity matured anti-NGF antagonist antibody; variable regions SEQ ID NO:1 and 2; human IgG2a (A330P331 to S330S331), kappa (antibody, V domains shown)
VH: QVQLQESGPGLVKPSETLSLTCTVSGFSLIGYDLNWIRQPPGKGLEWIGIIWGDGTTDYNSAVKSRVTISKDTSKNQFSLKLSSVTAADTAVYYCARGGYWYATSYYFDYWGQGTLVTVS
VL: DIQMTQSPSSLSASVGDRVTITCRASQSISNNLNWYQQKPGKAPKLLIYYTSRFHSGVPSRFSGSGSGTDFTFTISSLQPEDIATYYCQQEHTLPYTFGQGTKLEIKRT
modifications: human IgG2a constant (A330S/P331S) and kappa constant missing
E3 0.1 mg/kg on days 14+18, day 16
  Body weight normalized to day 14: 101.07
[1]
  Body weight normalized to day 0: 115.99
  Body weight normalized to day 14: 101.89
[2]
  Body weight normalized to day 0: 118.01
  Body weight normalized to day 14: 103.69
[3]
  Body weight normalized to day 0: 122.17
  Body weight normalized to day 14: 107.36
[4]
  Body weight normalized to day 0: 123.49
  Body weight normalized to day 14: 108.50
[5]
  Body weight normalized to day 0: 124.35
  Body weight normalized to day 14: 109.25
[6]
  Body weight normalized to day 0: 123.77
  Body weight normalized to day 14: 108.77
E3 0.3 mg/kg on days 14+18, day 0
  Body weight normalized to day 0: 100.00
E3 0.3 mg/kg on days 14+18, day 1
  Body weight normalized to day 0: 99.26
E3 0.3 mg/kg on days 14+18, day 2
  Body weight normalized to day 0: 102.98
E3 0.3 mg/kg on days 14+18, day 3
  Body weight normalized to day 0: 106.95
E3 0.3 mg/kg on days 14+18, day 4
  Body weight normalized to day 0: 110.50
E3 0.3 mg/kg on days 14+18, day 7
  Body weight normalized to day 0: 120.03
E3 0.3 mg/kg on days 14+18, day 8
  Body weight normalized to day 0: 121.38
E3 0.3 mg/kg on days 14+18, day 9
  Body weight normalized to day 0: 121.57
E3 0.3 mg/kg on days 14+18, day 10
  Body weight normalized to day 0: 118.27
E3 0.3 mg/kg on days 14+18, day 11
  Body weight normalized to day 0: 116.02
[7]
  Body weight normalized to day 0: 108.43
  Body weight normalized to day 14: 100.00
[8]
  Body weight normalized to day 0: 109.59
  Body weight normalized to day 14: 101.05
[9]
  Body weight normalized to day 0: 111.54
  Body weight normalized to day 14: 102.88
[10]
  Body weight normalized to day 0: 113.57
  Body weight normalized to day 14: 104.76
[11]
  Body weight normalized to day 0: 116.13
  Body weight normalized to day 14: 107.11
[12]
  Body weight normalized to day 0: 120.62
  Body weight normalized to day 14: 111.26
[13]
  Body weight normalized to day 0: 122.88
  Body weight normalized to day 14: 113.31
[14]
  Body weight normalized to day 0: 125.36
  Body weight normalized to day 14: 115.59
[15]
  Body weight normalized to day 0: 125.33
  Body weight normalized to day 14: 115.58
E3 1.0 mg/kg on days 14+18, day 0
  Body weight normalized to day 0: 100.00
E3 1.0 mg/kg on days 14+18, day 1
  Body weight normalized to day 0: 98.81
E3 1.0 mg/kg on days 14+18, day 2
  Body weight normalized to day 0: 103.18
E3 1.0 mg/kg on days 14+18, day 3
  Body weight normalized to day 0: 106.52
E3 1.0 mg/kg on days 14+18, day 4
  Body weight normalized to day 0: 110.52
E3 1.0 mg/kg on days 14+18, day 7
  Body weight normalized to day 0: 121.54
E3 1.0 mg/kg on days 14+18, day 8
  Body weight normalized to day 0: 124.28
E3 1.0 mg/kg on days 14+18, day 9
  Body weight normalized to day 0: 125.60
E3 1.0 mg/kg on days 14+18, day 10
  Body weight normalized to day 0: 124.11
E3 1.0 mg/kg on days 14+18, day 11
  Body weight normalized to day 0: 121.27
[16]
  Body weight normalized to day 0: 111.72
  Body weight normalized to day 14: 100.00
[17]
  Body weight normalized to day 0: 112.30
  Body weight normalized to day 14: 100.53
[18]
  Body weight normalized to day 0: 115.00
  Body weight normalized to day 14: 102.95
[19]
  Body weight normalized to day 0: 118.08
  Body weight normalized to day 14: 105.74
[20]
  Body weight normalized to day 0: 121.16
  Body weight normalized to day 14: 108.46
[21]
  Body weight normalized to day 0: 126.90
  Body weight normalized to day 14: 113.57
[22]
  Body weight normalized to day 0: 130.41
  Body weight normalized to day 14: 116.71
[23]
  Body weight normalized to day 0: 137.81
  Body weight normalized to day 14: 123.35
[24]
  Body weight normalized to day 0: 138.93
  Body weight normalized to day 14: 124.41
E3 5.0 mg/kg on days 14+18, day 0
  Body weight normalized to day 0: 100.00
E3 5.0 mg/kg on days 14+18, day 1
  Body weight normalized to day 0: 98.25
E3 5.0 mg/kg on days 14+18, day 2
  Body weight normalized to day 0: 101.82
E3 5.0 mg/kg on days 14+18, day 3
  Body weight normalized to day 0: 105.47
E3 5.0 mg/kg on days 14+18, day 4
  Body weight normalized to day 0: 109.29
E3 5.0 mg/kg on days 14+18, day 7
  Body weight normalized to day 0: 119.77
E3 5.0 mg/kg on days 14+18, day 8
  Body weight normalized to day 0: 121.96
E3 5.0 mg/kg on days 14+18, day 9
  Body weight normalized to day 0: 123.04
E3 5.0 mg/kg on days 14+18, day 10
  Body weight normalized to day 0: 120.00
E3 5.0 mg/kg on days 14+18, day 11
  Body weight normalized to day 0: 117.97
[25]
  Body weight normalized to day 0: 111.58
  Body weight normalized to day 14: 100.00
[26]
  Body weight normalized to day 0: 113.33
  Body weight normalized to day 14: 101.61
[27]
  Body weight normalized to day 0: 116.06
  Body weight normalized to day 14: 104.09
[28]
  Body weight normalized to day 0: 119.14
  Body weight normalized to day 14: 106.85
[29]
  Body weight normalized to day 0: 122.14
  Body weight normalized to day 14: 109.53
[30]
  Body weight normalized to day 0: 128.60
  Body weight normalized to day 14: 115.32
[31]
  Body weight normalized to day 0: 132.82
  Body weight normalized to day 14: 119.11
[32]
  Body weight normalized to day 0: 140.79
  Body weight normalized to day 14: 126.36
[33]
  Body weight normalized to day 0: 141.77
  Body weight normalized to day 14: 127.25
Data normalized to day 0, 0.03 mg/kg (p<0.002)
  change in body weight vs vehicle-treated arthritic animals (two-way ANOVA): significant change in body weight
Data normalized to day 14, 0.03 mg/kg (p<0.005)
  change in body weight vs vehicle-treated arthritic animals (two-way ANOVA): significant change in body weight
rat, in vivo
  weight loss compared with saline treated arthritic rats: less apparent weight loss than saline treated arthritic rats
